Measurements from PMC3790000, “The Extended Transmembrane Orai1 N-terminal (ETON) Region Combines Binding Interface and Gate for Orai1 Activation by STIM1*^([image sbox.jpg])^♦” (The Journal of Biological Chemistry, 2013).

Molecular target: T1, YFP-STIM1 233–485 (human, UniProt Q13586-1 233-485)
T1 construct: the YFP fluorescence is the read-out of the thermophoresis; also called STIM1 233–485 C-terminal fragment; slightly extended OASF fragment; source: HEK293, transfected, in lysate (supernatant after Nonidet P40 lysis)
T1 sequence (Q13586 233-485): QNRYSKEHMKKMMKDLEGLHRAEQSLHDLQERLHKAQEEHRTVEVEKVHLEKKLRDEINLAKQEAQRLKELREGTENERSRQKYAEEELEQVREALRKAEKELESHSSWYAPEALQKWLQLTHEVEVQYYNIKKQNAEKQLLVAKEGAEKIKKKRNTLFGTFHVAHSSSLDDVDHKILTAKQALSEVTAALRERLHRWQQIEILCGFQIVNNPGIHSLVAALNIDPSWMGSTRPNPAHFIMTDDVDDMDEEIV
Assay: MST; monolith NT.115 (Nanotemper); YFP-STIM1 233–485 (or free YFP) in HEK293 cell lysate kept constant, Orai1 peptide varied, up to 16 dilutions, 5 min incubation, glass capillaries; curve fitted to a one-site binding model
Conditions: one partner purified

Row | Kd | Binder
1 | 406 ± 68 µM | SMQAESERKLYLSRAKLKASSR (peptide, UniProt Q96D31-1 70-91, looked up, also called Orai1 NT(aa70–91 L74E/W76E); source: synthetic peptide, bought: peptide 2.0) [Orai1 aa70–91 L74E/W76E N-terminal peptide]
2 | > 4700 µM | RKLYLSRAKLKASSR (peptide, UniProt Q96D31-1 77-91, looked up, also called Orai1 NT(aa77–91); Orai1 aa77–91; source: synthetic peptide, bought: peptide 2.0) [Orai1 N-terminal peptide aa77–91]
